Assay results: patent US20250019451A1 (HIFIBIO, published 2025)

T1: human CCR4 (human, UniProt P51679 1-360)
T1 construct: Expressed on cells for flow cytometry; also called hCCR4
T1 sequence: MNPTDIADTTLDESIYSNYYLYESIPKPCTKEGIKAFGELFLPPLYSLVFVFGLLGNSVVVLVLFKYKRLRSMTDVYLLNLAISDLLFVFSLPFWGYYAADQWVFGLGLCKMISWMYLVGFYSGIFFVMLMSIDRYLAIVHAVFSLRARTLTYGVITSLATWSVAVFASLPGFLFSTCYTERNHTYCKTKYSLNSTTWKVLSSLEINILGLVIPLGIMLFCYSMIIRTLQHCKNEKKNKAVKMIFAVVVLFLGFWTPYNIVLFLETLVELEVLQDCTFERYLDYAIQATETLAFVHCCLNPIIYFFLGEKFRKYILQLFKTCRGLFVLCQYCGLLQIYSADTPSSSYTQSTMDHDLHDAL

T2: mouse CCR8 (mouse, UniProt P56484 1-353)
T2 construct: Transiently expressed on ExpiHEK293 cells, fused to GFP via cleavable linker
T2 sequence: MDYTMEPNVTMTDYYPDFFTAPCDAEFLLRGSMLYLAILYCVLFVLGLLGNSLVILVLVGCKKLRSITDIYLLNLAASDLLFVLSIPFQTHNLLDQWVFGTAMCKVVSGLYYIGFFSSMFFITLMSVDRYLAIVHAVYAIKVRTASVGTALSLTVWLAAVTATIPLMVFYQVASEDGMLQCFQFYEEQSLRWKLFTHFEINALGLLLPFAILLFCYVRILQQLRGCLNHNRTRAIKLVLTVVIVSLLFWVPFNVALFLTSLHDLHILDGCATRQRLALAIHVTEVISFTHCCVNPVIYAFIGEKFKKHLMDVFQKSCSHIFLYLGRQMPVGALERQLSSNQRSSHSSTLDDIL


Key:
human CCR4 = molecular target: T1, human CCR4; assay: flow cytometry on transiently transfected ExpiHEK293 cells
cynoCCR8 [1] = molecular target: T3, cynoCCR8 (cynomolgus, UniProt O97665 1-356 (rhesus entry)); assay: flow cytometry titration on ExpiHEK293 cells transiently expressing cynoCCR8
T3 construct: Transiently expressed on ExpiHEK293 cells, fused to GFP via cleavable linker; also called cynomolgus CCR8
T3 sequence (O97665 other isoform, or with tags, fused parts or gaps): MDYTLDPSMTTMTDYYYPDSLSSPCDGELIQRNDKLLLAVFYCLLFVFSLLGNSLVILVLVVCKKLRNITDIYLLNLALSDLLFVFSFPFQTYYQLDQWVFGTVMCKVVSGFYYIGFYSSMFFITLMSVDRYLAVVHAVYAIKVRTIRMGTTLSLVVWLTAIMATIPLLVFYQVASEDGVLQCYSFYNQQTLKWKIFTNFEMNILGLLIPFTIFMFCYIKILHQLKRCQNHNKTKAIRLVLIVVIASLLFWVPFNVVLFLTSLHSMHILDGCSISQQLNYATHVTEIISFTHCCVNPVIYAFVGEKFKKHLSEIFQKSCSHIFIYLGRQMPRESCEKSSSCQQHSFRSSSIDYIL
Description: (§1) Briefly, purified antibodies (saturating concentration of 50 nM, FIG. 3A or concentration range from 100 nM, 3-fold dilution, FIGS. 3B-3C) were incubated with 1×10⁵ ExpiHEK293 cells transiently transfected with either human (SEQ ID NO:11; Uniprot/Swiss-Prot: P51685), mouse CCR8 (SEQ ID NO: 64; Uniprot/Swiss-Prot: P56484), or cynoCCR8 (SEQ ID NO: 65; Uniprot/Swiss-Prot: G7NYJ2) fused to GFP protein via cleavable linker, for 30 minutes at 4° C. After washing, secondary anti-human-AF647 antibody (Jackson ImmunoResearch; West Grove, PA) was incubated at 12 nM for 30 minutes in PBS. After washing, cell pellets were resuspended in 50 μL PBS and samples were analyzed by flow cytometry on iQue cytometer (Sartorious, Goettingen, Germany) using Forecyt software (Intellicyt, Ann Arbor, MI). Mean of fluorescence intensity for the specific signal among GFP+ cells are represented in FIGS. 3A-3C. Titration curve of cross-reactive antibodies against mouse CCR8 and cyno CCR8 are presented in FIGS. 3B and 3C, respectively.

human CCR8 [2] = molecular target: T4, human CCR8 (human, UniProt P51685 1-355); assay: flow cytometry on transiently transfected ExpiHEK293 cells, 50 nM antibody
T4 construct: also called hCCR8; chemokine (C-C motif) receptor 8
Description: as §1

mouse CCR8 [3] = molecular target: T2, mouse CCR8; assay: flow cytometry titration on ExpiHEK293 cells transiently expressing mouse CCR8
Description: as §1

human CCR8 [4] = molecular target: T4, human CCR8; assay: cell-based or functional assay
human CCR8 [5] = molecular target: T4, human CCR8; assay: flow cytometry on ExpiHEK293 cells transiently expressing human CCR8, 50 nM antibody
Description: as §1

mouse CCR8 [6] = molecular target: T2, mouse CCR8; assay: flow cytometry on ExpiHEK293 cells transiently expressing mouse CCR8
Description: as §1

cynoCCR8 [7] = molecular target: T3, cynoCCR8; assay: flow cytometry on ExpiHEK293 cells transiently expressing cynoCCR8
Description: as §1

| binding result (human CCR4) | EC50 (cynoCCR8 [1]) [nM] | binding result (human CCR8 [2]) | EC50 (mouse CCR8 [3]) [nM] | binding result (human CCR8 [5]) | binding result (mouse CCR8 [6]) | binding result (cynoCCR8 [7]) | Binder | ADCC NK killing of M300.19 cells expressing low copies of CCR8, EC50 (human CCR8 [4]) [nM] |
| --- | --- | --- | --- | --- | --- | --- | --- | --- |
| no binding (tested: 50 nM) | 15.8 | binds | 53 | – | – | – | HFB11-21 (antibody, human IgG1, V domains shown, also called HFB-21) VH: QVQLQQPGAELVKPGASVKLSCKASGYTFISYWMHWVKQRPGRGLEWIGRIDPNSGKTKYNEKFKTKATLTVDKSSSTAYMHLNSLTSDDSAVYYCAREGWGDYWGQGTTLTVSS VL: DIVLTQSPASLAVSLGQRATISCRASESVDNYGISFMHWYQQKPGQPPRLLIYRASNLASGIPARFSGSGSSTDFTLTINPVETDDIATYYCQQSNKDPRTFGGGTKLEIK | – |
| – | – | – | – | – | – | – | HFB11-10 parental antibody (non-humanized) in ADCC enhanced format (antibody, V domains shown) VH: EVQLVETGGGLVQPKGSLKLSCAASGFRFNTNAMNWVRQAPGKDLEWVARIRSKSNNYATYYADSVKDRFTISRDDSQSMLYLQMNNVKTEDTAMYYCVRGSDNNYYYAMDYWGQGTSVTVSS VL: DIVMTQAAPSVPVTPGESVSISCRSSKSLLHSNGNTYLYWFLQRPGQSPQLLIYRMSNLASGVPDRFSGSGSGTAFTLRISRVEAEDVGVYYCMQHLEYPFTFGSGTKLEIK | 0.003 |
| no binding (tested: 50 nM) | – | binds | < 1 | – | – | – | HFB11-2 (antibody, human IgG1, V domains shown) VH: EVQLVESGGGLVQPKGSLKLSCAASGFSFNTYAMNWVRQAPGKGLEWVARIRSKSNNYATYYADSVKDRFTISRDDSERMLYLQMNNLKTEDTAMYYCVRGGSYYSNHYFDYWGQGTTLTVSS VL: DIVMTQAAPSVPVTPGESVSISCRSSKSLLHSNGNTYLYWFLQRPGQSPQLLIYQMSNLASGVPDRFSGSGSGTAFTLRISRVEAEDVGVYYCMQHLEYPFTFGAGTKLELK | – |
| no binding (tested: 50 nM) | – | – | – | binds | no binding (tested: 50 nM) | no binding (tested: 50 nM) | HFB11-5 (antibody, human IgG1, V domains shown) VH: EVQLVESGGGLVQPRGSLKLSCTASGFSFNAYAMNWVRQAPGKGLEWVARIRTKSNNYATYYADSVKDRFTISRDDSESMLYLQMKNLKTEDTAMYYCVRGGYGNGGYYFDYWGQGTTLTVSS VL: DIVMTQAAPSVTVTPGESASISCRSSKSLLHRNGNSYLYWFLQRPGQSPQLLIYRISNLASGVPDRFSGSGSGTAFTLRISRVEAEDVGVYYCMQHLEYPFTFGSGTKLEIK | – |
| no binding (tested: 50 nM) | – | – | – | – | no binding (tested: 50 nM) | no binding (tested: 50 nM) | HFB11-3 (antibody, human IgG1, V domains shown) VH: EVQLVESGGGLVQPQGSLKLSCAASGFSFNTYAMNWVRQAPGKGLQWVARIRSKSNNYATYYADSVKDRFTISRDDSESMLYLQMNNLKTEDAAMYYCVRGKDANYFYAMDYWGQGTSVTVSS VL: DIVMTQAAPSVPVTPGESVSISCRSSKSLLHSNGNTYLYWFLQRPGQSPQLLIYRMSNLASGVPDRFSGSGSGTAFTLRISRVEAEDVGVYYCMQHLEYPFTFGAGTKLELK | – |
| no binding (tested: 50 nM) | – | – | – | – | no binding (tested: 50 nM) | no binding (tested: 50 nM) | HFB11-10 (antibody, V domains shown, Mouse variable domains; also called H11-10) VH: EVQLVETGGGLVQPKGSLKLSCAASGFRFNTNAMNWVRQAPGKDLEWVARIRSKSNNYATYYADSVKDRFTISRDDSQSMLYLQMNNVKTEDTAMYYCVRGSDNNYYYAMDYWGQGTSVTVSS VL: DIVMTQAAPSVPVTPGESVSISCRSSKSLLHSNGNTYLYWFLQRPGQSPQLLIYRMSNLASGVPDRFSGSGSGTAFTLRISRVEAEDVGVYYCMQHLEYPFTFGSGTKLEIK | – |
| no binding (tested: 50 nM) | 1.8 | binds | – | – | – | – | HFB11-19 (antibody, human IgG1, V domains shown) VH: QVQLQQSGAELVKPGASVKLSCKASGYTFTDYIIHWVKQRSGQGLEWIGWFSPRNNYVKYNERFTDKATLTADKSSNTVYMELSSLTSEDSAVYFCSRHGRNSIGFAYWGQGTLVTVSA VL: DIVMTQAAPSVPVTPGESVSISCRSSKSLLNSNGNTYLYWFLQRPGQSPQLLIYRMSNLASGVPDRFSGSGSGTAFTLRISRVEAEDVGVYYCMQHLEYPYTFGGGTKLEIK | – |
| no binding (tested: 50 nM) | – | – | – | binds | no binding (tested: 50 nM) | no binding (tested: 50 nM) | HFB11-8 (antibody, human IgG1, V domains shown) VH: EVQLVETGGGLVQPKGSLKLSCAASGFRFNTNAMNWVRQAPGKGLEWVARIRSKSNNYATHYVDSVKDRFTVSRDDSQSMLYLQMNNLKAEDTAMYYCVRGSDNNYYYAMDYWGQGTSVTVSS VL: DIVMTQAAPSVPVTPGESVSISCRSSKSLLHSNGNTYLYWFLQRPGQSPQLLIYRMSNLASGVPDRFSGSGSGTSFTLRISRVEVEDVGVYYCMQHLEYPFTFGSGTKLEIK | – |
